Paper PMC7023979

Target: SIVrcm integrase A119D (simian immunodeficiency virus from red-capped mangabeys (SIVrcm))
Experiment: cryo-EM structure

SIVrcm integrase A119D (enzyme)
stoichiometry N: 4
